Among the data in article PMC3708883 are inhibition of BADrUL131 entry into monocytes (internalized vDNA) after pretreatment with 5 µg/ml function blocking anti-β1 integrin antibody and inhibition of BADrUL131 entry into monocytes (internalized vDNA) after pretreatment with 5 µg/ml function blocking anti-β3 integrin antibody values, retold here.

For assay [1], the target named is β1 integrin (human (endogenous in peripheral blood monocytes)) (UniProt P05556).
Assay [2] concerns the target β3 integrin (human (endogenous in peripheral blood monocytes)) (UniProt P05106).

β1 integrin (human (endogenous in peripheral blood monocytes)), sequence (P05556 21-798): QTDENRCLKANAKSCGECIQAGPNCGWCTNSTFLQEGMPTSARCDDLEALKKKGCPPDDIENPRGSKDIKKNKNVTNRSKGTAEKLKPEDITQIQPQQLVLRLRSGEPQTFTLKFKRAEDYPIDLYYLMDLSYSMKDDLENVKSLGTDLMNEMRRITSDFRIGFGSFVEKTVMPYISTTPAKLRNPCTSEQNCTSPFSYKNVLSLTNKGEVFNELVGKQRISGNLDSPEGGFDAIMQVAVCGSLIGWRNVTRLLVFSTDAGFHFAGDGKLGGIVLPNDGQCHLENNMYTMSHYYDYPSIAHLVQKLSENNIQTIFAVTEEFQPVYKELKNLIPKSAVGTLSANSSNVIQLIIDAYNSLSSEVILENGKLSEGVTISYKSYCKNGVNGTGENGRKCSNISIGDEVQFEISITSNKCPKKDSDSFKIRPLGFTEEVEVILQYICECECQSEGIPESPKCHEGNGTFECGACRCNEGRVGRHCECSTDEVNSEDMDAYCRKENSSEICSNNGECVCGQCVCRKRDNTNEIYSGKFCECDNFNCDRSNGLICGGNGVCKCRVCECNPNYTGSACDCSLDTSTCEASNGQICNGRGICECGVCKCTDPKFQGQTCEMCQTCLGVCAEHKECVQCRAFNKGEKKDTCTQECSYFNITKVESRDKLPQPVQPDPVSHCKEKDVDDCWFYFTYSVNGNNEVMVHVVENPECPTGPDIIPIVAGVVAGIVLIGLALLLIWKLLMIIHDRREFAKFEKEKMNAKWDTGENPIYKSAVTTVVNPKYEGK
β3 integrin (human (endogenous in peripheral blood monocytes)), sequence (P05106 27-788): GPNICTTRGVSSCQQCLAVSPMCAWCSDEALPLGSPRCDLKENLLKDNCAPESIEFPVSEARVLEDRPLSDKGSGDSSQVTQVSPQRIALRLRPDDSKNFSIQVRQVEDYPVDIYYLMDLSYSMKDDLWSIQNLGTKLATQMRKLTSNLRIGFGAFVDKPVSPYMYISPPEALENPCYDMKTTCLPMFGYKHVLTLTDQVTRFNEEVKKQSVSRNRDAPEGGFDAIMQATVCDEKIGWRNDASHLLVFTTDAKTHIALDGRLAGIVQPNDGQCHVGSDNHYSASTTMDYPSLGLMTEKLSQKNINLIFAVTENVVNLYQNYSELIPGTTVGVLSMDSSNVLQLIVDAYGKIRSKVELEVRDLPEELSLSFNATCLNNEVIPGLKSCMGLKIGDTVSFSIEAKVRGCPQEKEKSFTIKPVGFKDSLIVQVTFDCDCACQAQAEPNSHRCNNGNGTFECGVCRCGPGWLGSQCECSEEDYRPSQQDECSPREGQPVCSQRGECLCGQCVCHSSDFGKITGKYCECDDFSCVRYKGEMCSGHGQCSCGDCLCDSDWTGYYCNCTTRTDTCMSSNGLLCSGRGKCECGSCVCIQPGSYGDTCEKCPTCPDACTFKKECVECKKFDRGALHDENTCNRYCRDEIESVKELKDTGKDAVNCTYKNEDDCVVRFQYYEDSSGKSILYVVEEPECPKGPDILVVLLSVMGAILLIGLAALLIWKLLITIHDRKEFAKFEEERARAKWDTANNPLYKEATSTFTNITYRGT

Consider “HCMV gH/gL/UL128-131 complex of BADrUL131 (from UniProt P12824 24-743; P16832 31-278; P16837 1-171; P16772 1-214)”, for which the inhibition of BADrUL131 entry into monocytes (internalized vDNA) after pretreatment with 5 µg/ml function blocking anti-β1 integrin antibody in assay [1] came out at 75%. Besides, the inhibition of BADrUL131 entry into monocytes (internalized vDNA) after pretreatment with 5 µg/ml function blocking anti-β3 integrin antibody in assay [2] came out at 40%.
